Source: the supplement of paper PMC9170038

System: MS2 coat protein
Experiment: apparent KD of MS2 coat protein; designed switch direction (-1 OFF switch, 1 ON switch): 1; higher = weaker reporter binding
In short: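 Stalled E. coli RNA polymerase transcribed designed RNA switches on Illumina chips, which were then titrated with SNAP-549-labelled MS2 coat protein, doubling from 0.7 or 1.5 nM to 3 µM. Steps lasted from 0.8–1.5 h at the lowest concentration to 10–20 min at the highest. The apparent KD is each design's median over clusters of curve-fitted normalised fluorescence.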

[1] = input ligand: microRNA oligo, concentration not stated
[2] = Eterna round: R95, input ligand: FMN 200 uM
[3] = Eterna round: R95, input ligand: microRNA oligo, concentration not stated
[4] = Eterna round: R95, input ligand: none

Sequence	apparent KD of MS2 coat protein (input ligand: FMN 200 uM) [nM]	apparent KD of MS2 coat protein [1] [nM]	apparent KD of MS2 coat protein (input ligand: none) [nM]	apparent KD of MS2 coat protein [2] [nM]	apparent KD of MS2 coat protein [3] [nM]	apparent KD of MS2 coat protein [4] [nM]
CUGAGCAAUCAAGGAUAUCACGUCGAUUAGACGUGAGAAGGUGAUCAUAACAUGAGGAUCACCCAUGUAUUACAUGAAGCUCAG [SSNG1/1-A2] (Eterna round: R96, puzzle: Same State NG 1)	975	692	740	–	–	–
CUGAGCGAUCGAGGAUAUCACGUCGAAUAGACGUGAGAAGGCGAUCAUAACAUGAGGAUCACCCAUGUAUUACAUGAAGCUCAG [SSNG1/4-A1] (Eterna round: R96, puzzle: Same State NG 1)	13.2	10.5	17.8	–	–	–
CUGCUACAUGAGGAUCACCCAUGUUGGAGUAAUGCAGGAUAUGUGGGACCAGAAGAUAAAACAGAAGGGCAAGGAG [JR_SS!_Sub007] (puzzle: Same State 1)	–	–	–	18	14.4	28.8
CUUCGCGCCGCAGGAUAUGCCGACCCGUGUUGAGCAGAAGGGCGAGACAUGAGGAUCACCCAUGUCUAAAGAGCGCAUCAAUAA [Esedlaedbi] (Eterna round: R96, puzzle: Same State NG 1)	23.1	18.9	45.9	–	–	–
CUUCUUCCUUUUACAUGAGGAUCACCCAUGUUUUCAUAUUGAGAGGAUAUCGUAUUUGGAAACAUCGAGAAGGCUCAUUUGUAU [JR_SSNG3_Sub074] (Eterna round: R96, puzzle: Same State NG 3)	78.6	98.6	223	–	–	–
GAAGGAUGAGCGUAGGAUAUAGGAGGAGUGACAUGAGGAUCACCCAUGUAGUAGGAGGGAGGGUACUAGAAGGACGAGGAAGAGG [JR_SS2_Sub068] (puzzle: Same State 2)	–	–	–	67	32.2	57.4
GACUAUCUAUCUCAGGAUAUCAUGUCAAAGACAUGAGGAUCACCCAUGUACCAGGAAACUGGUUAUGAGAAGGGAGAUAGAUAGG [Mat - Same State 2 - Mod - D43] (puzzle: Same State 2)	–	–	–	81.1	26.3	38.8
GACUCUAGAGGAGGAUAUGCAGAGGAUCACCCUGUAGAAGGCCUCAUAAGGAGGAUAUGCAGAGGAUCACCCUGUAGAAGGCCU [pwkr ssNG DX.20] (Eterna round: R96, puzzle: Same State NG 1)	170	85.5	272	–	–	–
GAGCCAGUCCGAGGAUAUUCAUAUUAAAACAUGAGGAUCACCCAUGUAGGCUCAGAAGAGCCUUGGGAGAAGGCGGACUGGCUC [Xeonanisa] (Eterna round: R96, puzzle: Same State NG 2)	23.3	214	366	–	–	–
GAGGAACAUGAGGAUCACCCAUGUAAAGGGUUUAAAGGAUAUUAUUGGGAGAAAGUAGGGUAAGAAGGUUGAUUGG [JR_SS1_Sub087] (puzzle: Same State 1)	–	–	–	120	127	168
GAGGGACAGACCAACAUGAGGAUCACCCAUGUCCUCGCAGGUCAGGAUAUUAUGAGGAUCACCCAUGAGAAGGGACGGUGAACC (Eterna round: R96, puzzle: Same State NG 3)	587	340	491	–	–	–
GAGUAGUUGAAAGGAUAUAGAUUAUUGUAGGAUCUAGAAGGUUCUAACAUGAGGAUCACCCAUGUAGGACUAUUCCUGUGUAUC [Parity 88 - Jieux - Same State NG 1] (Eterna round: R96, puzzle: Same State NG 1)	9.56	9.27	12.6	–	–	–
GAGUGACAUGAGGAUCACCCAUGUAGAAUAGAACAAGGAUAUGUGGAAGGCGGAGGAGAGACAGAAGGUGUUGAGG [JR_SS1_Sub058] (puzzle: Same State 1)	–	–	–	52	77.1	119
GAGUGGUAAAGAGGAUAUGCAUUGUUAUUCACUGUAGAAGGUUUUAACAUGAGGAUCACCCAUGUAGGACUAUUCCUGUGUUUU [Parity 61 - Jieux - Same State NG 1] (Eterna round: R96, puzzle: Same State NG 1)	12.4	12.4	18.8	–	–	–
GAGUGGUGGAGAGGAUAUACAUUGAUAAUCACUGUAGAAGGUUCUAACAUGAGGAUCACCCAUGUAGGACUAUUCCUGAGAGUU [Parity 53 - Jieux - Same State NG 1] (Eterna round: R96, puzzle: Same State NG 1)	11.6	9.89	12	–	–	–
GAGUUACUAUCUCAGGAUAUCAUGUCAAAGACAUGAGGAUCACCCAUGUACCAGGAAACUGGUUAUGAGAAGGGAGAUAGUAACG [Mat - Same State 2 - Mod - D52] (puzzle: Same State 2)	–	–	–	112	116	154

Sequence	apparent KD of MS2 coat protein (input ligand: FMN 200 uM) [nM]	apparent KD of MS2 coat protein [1] [nM]	apparent KD of MS2 coat protein (input ligand: none) [nM]	apparent KD of MS2 coat protein [2] [nM]	apparent KD of MS2 coat protein [3] [nM]	apparent KD of MS2 coat protein [4] [nM]
GCAAACACAUGAGGAUCACCCAUGUGGAAAGAGCAAUUAGGCUAGGAUAUUCAUGUCGUUUGCAAGAAGAAGGAGCCAUAGUGG [Eternabot solution 20] (Eterna round: R96, puzzle: Same State NG 3)	–	205	–	–	–	–
GCAGCACAUGAGGAUCACCCAUGUCUUCGGAGUCGAGGAUAUGGUCACUGUAAACAGUGGCCAGAAGGCGAGUUGC [SS1 - Son of Teenbexe v5] (puzzle: Same State 1)	–	–	–	–	24.3	–
GCAGCCGGCACUGAGGAUAUUCAUAUUAAAACAUGAGGAUCACCCAUGUAGGCCAGAAGGCCUUGGGAGAAGGCAGGUCGGCUGG [Mat - Same State 2 - Mod of UCT - D63] (puzzle: Same State 2)	–	–	–	20.8	219	232
GCAGGACGGUAAAACAUCUCACAUGAGGAUCACCCAUGUUGUGAGGAUAUGGAUCCUAAUUGGAUCCAGAAGGCACGGUCCUGC [Fiskers NG3ss - 30] (Eterna round: R96, puzzle: Same State NG 3)	24.9	17.7	27.8	–	–	–
GCAGUACAUGAGGAUCACCCAUGUCUCUAAAGUCGAGGAUAUGGGCAGGUUAUAUCCGAACCAGAAGGCGAACUGC [SS1 Teenbexe 11] (puzzle: Same State 1)	–	–	–	68.6	260	527
GCAUCACAUGAGGAUCACCCAUGUCUUCGGAGUGGAGGAUAUGGUCACUGUAAACAGUGGCCAGAAGGCCGGAUGC [SS1 - Son of Teenbexe v2] (puzzle: Same State 1)	–	–	–	–	63.3	–
GCCAACGCAUGAGGAUAUGGCACCUUAUUGGUGCCAGAAGGCGUGUGUAUUCACAUGAGGAUCACCCAUGUAUUAUAGUUGGCA [Fiskers NG1ss - 16] (Eterna round: R96, puzzle: Same State NG 1)	24.1	169	189	–	–	–
GCCCAGAGUAUAUGGGUACAAGCUUUUUGACAUGAGGAUCACCCAUGUACUCGUCUUAUGUGCAGUCCGUAGACUGC [JL-shm-2.19 Brourd mod] (puzzle: Sensor for hsa-mir-208a)	–	–	–	18.2	27.3	17.4
GCCGCGUUUAACGCCUACAUGAGGAUCACCCAUGUAUGUAGGCAGGAUAUCGUUUGCUUUGCAAACGAGAAGGGCUGUAGUGGC [salish99_SSNG3_R04_006] (Eterna round: R96, puzzle: Same State NG 3)	25.9	73.9	80.9	–	–	–
GCCGCGUUUCGCGCCUACAUGAGGAUCACCCAUGUUUGUAGGCAGGAUAUCGUUUGCUUUGCGGGCGAGAAGGGCUGUUGUGGC [salish99_SSNG3_R04_017] (Eterna round: R96, puzzle: Same State NG 3)	35	28.9	38.8	–	–	–
GCCGCGUUUCGCGCCUACAUGAGGAUCACCCAUGUUUGUCGGCAGGAUAUCGUCCGCUCUGCGGGCGAGAAGGGCUAUUGUGGU [salish99_SSNG3_R04_027] (Eterna round: R96, puzzle: Same State NG 3)	28.8	17	24.5	–	–	–
GCGAGCGUACUUGCAACAUGAGGAUCACCCAUGUUAACUGGACAGGAUAUGGUACCGUUUCGGUACCAGAAGGGUUCCUUCAUG [JL SSNG3 3.60] (Eterna round: R96, puzzle: Same State NG 3)	167	166	268	–	–	–
GCGAGCGUACUUGCUACAUGAGGAUCACCCAUGUUUACUGGACAGGAUAUGGUACCGUUUCGGUACCAGAAGGGUUCAUCAUGU [JL SSNG3 3.69] (Eterna round: R96, puzzle: Same State NG 3)	278	248	597	–	–	–
GCGGAACAUGAGGAUCACCCAUGUGGAGGGUGUAAAGGAUAUUAUAGAGAGAAGGUAGGGUAAGAAGGUUGCUGGG [JR_SS1_Sub090] (Eterna round: R96, puzzle: Same State 1)	899	582	994	–	–	–
GCGGAACAUGAGGAUCACCCAUGUGGAGGGUGUAAAGGAUAUUAUAGAGAGAAGGUAGGGUAAGAAGGUUGCUGGG [JR_SS1_Sub090] (puzzle: Same State 1)	–	–	–	624	320	592
